From patent US20030166571A1 (SYNVAX, published 2003) come the findings set out here.

Numbered stars: 1 amine (or outer) side, 2 acyl side, 3 side chain; on linkers, the order of the positions; unused ones are H or OH. Square brackets hold non-standard residues; d marks the D form. * marks the point of attachment. Phe(4-NHAc) = 4-acetamidophenylalanine, CC(=O)Nc1ccc(C[C@H](N[*:1])C(=O)[*:2])cc1; Phe(4-CH2NH2) = NCc1ccc(C[C@H](N)C(=O)O)cc1; Tyr(3-Cl) = N[C@@H](Cc1ccc(O)c(Cl)c1)C(=O)O; Heptanoyl = CCCCCCC(=O)*; Hexanoyl = CCCCCC(=O)*; Propionyl = CCC(=O)*; Butyryl = CCCC(=O)*

In assay [1] the target is T1, human ORL-1 receptor (opioid receptor like 1) (human, UniProt P41146 1-370).
T1 construct: whole, on cells; Assays were run on membranes of CHO cells transfected with human ORL-1; also called opiate receptor like 1; nociceptin receptor
T1 sequence (P41146 whole entry): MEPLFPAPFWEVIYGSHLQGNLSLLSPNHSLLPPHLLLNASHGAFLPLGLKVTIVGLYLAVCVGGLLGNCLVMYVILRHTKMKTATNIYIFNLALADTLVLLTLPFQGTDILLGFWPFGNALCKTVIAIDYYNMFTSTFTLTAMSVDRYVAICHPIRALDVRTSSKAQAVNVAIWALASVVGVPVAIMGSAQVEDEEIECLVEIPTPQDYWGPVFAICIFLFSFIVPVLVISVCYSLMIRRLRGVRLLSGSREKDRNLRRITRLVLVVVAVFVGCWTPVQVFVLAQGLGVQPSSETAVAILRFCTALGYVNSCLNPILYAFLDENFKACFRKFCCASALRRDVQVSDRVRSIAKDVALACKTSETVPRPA
The assay can be described thus: [3H]nociceptin displacement at ORL1.

The target of assay [2] is T1, human ORL-1 receptor (opioid receptor …). Kind of assay: cell-based or functional assay.
Assay [3] shares this target. Kind of assay: binding assay at ORL1 (taken as [3H]nociceptin displacement as in Table 1).
Assay [4] has the same target. The assay can be described thus: [3H]nociceptin displacement, membranes of CHO cells transfected with human ORL-1; Ki=IC50/(1+L/Kd). The method, then: Receptor binding studies were conducted on human ORL1 (opiate receptor like 1) transfected into Chinese hamster ovary (CHO) cells using each of the hexapeptide analog compounds of Table 3. All the compounds were evaluated for binding affinities. […] The data shown in Table 5 represents the average±SEM of at least two experiments conducted in triplicate.
Cells are removed from the plates by scraping with a rubber policeman, and then homogenized in Tris buffer using a Polytron homogenizer. Following this homogenization step, the cellular mixture is centrifuged once and washed by an additional centrifugation at 40,000×g for 15 min. The pellet formed during the centrifugation is re-suspended in 50 mM Tris, pH 7.5. […] Samples of the suspension are then filtered over glass fiber filters using a Wallac cell harvester.
For the data in Table 5, binding was conducted as described above. IC₅₀ values and Hill coefficients were determined using the curve-fitting program Prism. K₁ values were calculated using the equation K₁=IC₅₀/(1+[L]/Kd). […] The data in Table 5 represent the average±SEM of at least two experiments conducted in triplicate.

The target is the same in assay [5]. Kind of assay: cell-based or functional assay. The source holds these as a separate data set.

B1: Ac-RYYRWR-NH2 (peptide)
peptide: Ac-RYYRWR-NH2
notes: also called parent peptide
By IC50 is commonly meant the midpoint of a concentration-inhibition curve. A high value points to weaker potency in that assay. On to B1, for which the IC50 in assay [1] is 0.72 nM. Besides, in assay [2], the “[^35S]GTPγS Binding EC50” value was determined as 1.2 nM and the “[^35S]GTPγS Binding Percent Stimulation” value stood at 100%.

B2: IV-27-B Propionyl-RYYAWR-NH2 (peptide)
peptide: Propionyl-RYYAWR-NH2
SMILES: CCC(=O)N[C@@H](CCCNC(=N)N)C(=O)N[C@@H](Cc1ccc(O)cc1)C(=O)N[C@@H](Cc1ccc(O)cc1)C(=O)N[C@@H](C)C(=O)N[C@@H](Cc1c[nH]c2ccccc12)C(=O)N[C@@H](CCCNC(=N)N)C(N)=O
Molecule B2 registered an IC50 in assay [3] of 400 nM.

B3: IV-29-B Propionyl-RYYRAR-NH2 (peptide)
peptide: Propionyl-RYYRAR-NH2
SMILES: CCC(=O)N[C@@H](CCCNC(=N)N)C(=O)N[C@@H](Cc1ccc(O)cc1)C(=O)N[C@@H](Cc1ccc(O)cc1)C(=O)N[C@@H](CCCNC(=N)N)C(=O)N[C@@H](C)C(=O)N[C@@H](CCCNC(=N)N)C(N)=O
In assay [3], B3 displayed an IC50 of 1890 nM. Compared with the last molecule, the IC50 is about 4.7-fold higher.

B4: IV-31-B Propionyl-RYYRWA-NH2 (peptide)
peptide: Propionyl-RYYRWA-NH2
SMILES: CCC(=O)N[C@@H](CCCNC(=N)N)C(=O)N[C@@H](Cc1ccc(O)cc1)C(=O)N[C@@H](Cc1ccc(O)cc1)C(=O)N[C@@H](CCCNC(=N)N)C(=O)N[C@@H](Cc1c[nH]c2ccccc12)C(=O)N[C@@H](C)C(N)=O
In assay [3], B4 registered an IC50 of 76 nM.

B5: IV-23-B Propionyl-RAYRWR-NH2 (peptide)
peptide: Propionyl-RAYRWR-NH2
SMILES: CCC(=O)N[C@@H](CCCNC(=N)N)C(=O)N[C@@H](C)C(=O)N[C@@H](Cc1ccc(O)cc1)C(=O)N[C@@H](CCCNC(=N)N)C(=O)N[C@@H](Cc1c[nH]c2ccccc12)C(=O)N[C@@H](CCCNC(=N)N)C(N)=O
B5: the IC50 in assay [3] worked out at 182 nM.

B6: IV-41-B Hexanoyl-RYYRAR-NH2 (peptide)
peptide: Hexanoyl-RYYRAR-NH2
SMILES: CCCCCC(=O)N[C@@H](CCCNC(=N)N)C(=O)N[C@@H](Cc1ccc(O)cc1)C(=O)N[C@@H](Cc1ccc(O)cc1)C(=O)N[C@@H](CCCNC(=N)N)C(=O)N[C@@H](C)C(=O)N[C@@H](CCCNC(=N)N)C(N)=O
Regarding B6, in assay [3], the IC50 came out at 710 nM.

B7: IV-21-C Propionyl-AYYRWR-NH2 (peptide)
peptide: Propionyl-AYYRWR-NH2
SMILES: CCC(=O)N[C@@H](C)C(=O)N[C@@H](Cc1ccc(O)cc1)C(=O)N[C@@H](Cc1ccc(O)cc1)C(=O)N[C@@H](CCCNC(=N)N)C(=O)N[C@@H](Cc1c[nH]c2ccccc12)C(=O)N[C@@H](CCCNC(=N)N)C(N)=O
B7 returned an IC50 in assay [3] of 1780 nM. This IC50 is about 2.5-fold higher than that of the molecule before.

B8: IV-25-B Propionyl-RYARWR-NH2 (peptide)
peptide: Propionyl-RYARWR-NH2
SMILES: CCC(=O)N[C@@H](CCCNC(=N)N)C(=O)N[C@@H](Cc1ccc(O)cc1)C(=O)N[C@@H](C)C(=O)N[C@@H](CCCNC(=N)N)C(=O)N[C@@H](Cc1c[nH]c2ccccc12)C(=O)N[C@@H](CCCNC(=N)N)C(N)=O
In the case of B8, in assay [3], the IC50 came to 495 nM.

B9: IV-33-B Hexanoyl-AYYRWR-NH2 (peptide)
peptide: Hexanoyl-AYYRWR-NH2
SMILES: CCCCCC(=O)N[C@@H](C)C(=O)N[C@@H](Cc1ccc(O)cc1)C(=O)N[C@@H](Cc1ccc(O)cc1)C(=O)N[C@@H](CCCNC(=N)N)C(=O)N[C@@H](Cc1c[nH]c2ccccc12)C(=O)N[C@@H](CCCNC(=N)N)C(N)=O
With B9, in assay [3], the IC50 was 1020 nM.

B10: IV-35-B Hexanoyl-RAYRWR-NH2 (peptide)
peptide: Hexanoyl-RAYRWR-NH2
SMILES: CCCCCC(=O)N[C@@H](CCCNC(=N)N)C(=O)N[C@@H](C)C(=O)N[C@@H](Cc1ccc(O)cc1)C(=O)N[C@@H](CCCNC(=N)N)C(=O)N[C@@H](Cc1c[nH]c2ccccc12)C(=O)N[C@@H](CCCNC(=N)N)C(N)=O
In assay [3], B10 had an IC50 of 113 nM.

B11: IV-43-B Hexanoyl-RYYRWA-NH2 (peptide)
peptide: Hexanoyl-RYYRWA-NH2
SMILES: CCCCCC(=O)N[C@@H](CCCNC(=N)N)C(=O)N[C@@H](Cc1ccc(O)cc1)C(=O)N[C@@H](Cc1ccc(O)cc1)C(=O)N[C@@H](CCCNC(=N)N)C(=O)N[C@@H](Cc1c[nH]c2ccccc12)C(=O)N[C@@H](C)C(N)=O
In assay [3], B11 gave an IC50 of 311 nM.

B12: IV-39-B Hexanoyl-RYYAWR-NH2 (peptide)
peptide: Hexanoyl-RYYAWR-NH2
SMILES: CCCCCC(=O)N[C@@H](CCCNC(=N)N)C(=O)N[C@@H](Cc1ccc(O)cc1)C(=O)N[C@@H](Cc1ccc(O)cc1)C(=O)N[C@@H](C)C(=O)N[C@@H](Cc1c[nH]c2ccccc12)C(=O)N[C@@H](CCCNC(=N)N)C(N)=O
In turn, B12 gave an IC50 in assay [3] of 1000 nM. Against the preceding molecule, the IC50 is about 3.2-fold higher.

B13: IV-37-B Hexanoyl-RYARWR-NH2 (peptide)
peptide: Hexanoyl-RYARWR-NH2
SMILES: CCCCCC(=O)N[C@@H](CCCNC(=N)N)C(=O)N[C@@H](Cc1ccc(O)cc1)C(=O)N[C@@H](C)C(=O)N[C@@H](CCCNC(=N)N)C(=O)N[C@@H](Cc1c[nH]c2ccccc12)C(=O)N[C@@H](CCCNC(=N)N)C(N)=O
In turn, B13 came in with a half-inhibitory concentration (IC50) in assay [3] of 79 nM.

B14: IV-16-C Propionyl-RYYRWR-NH2 (peptide)
peptide: Propionyl-RYYRWR-NH2
SMILES: CCC(=O)N[C@@H](CCCNC(=N)N)C(=O)N[C@@H](Cc1ccc(O)cc1)C(=O)N[C@@H](Cc1ccc(O)cc1)C(=O)N[C@@H](CCCNC(=N)N)C(=O)N[C@@H](Cc1c[nH]c2ccccc12)C(=O)N[C@@H](CCCNC(=N)N)C(N)=O
notes: see recheck
In assay [1], B14 gave an IC50 of 1.2 nM. Also, in assay [2], the “[^35S]GTPγS Binding EC50” value came out at 22.3 nM and the “[^35S]GTPγS Binding Percent Stimulation” value is 82%.

B15: VII-87-B (peptide)
peptide: Ac-R[Tyr(3-Cl)]YRWR-NH2
SMILES: CC(=O)N[C@@H](CCCNC(=N)N)C(=O)N[C@@H](Cc1ccc(O)c(Cl)c1)C(=O)N[C@@H](Cc1ccc(O)cc1)C(=O)N[C@@H](CCCNC(=N)N)C(=O)N[C@@H](Cc1c[nH]c2ccccc12)C(=O)N[C@@H](CCCNC(=N)N)C(N)=O
notes: also called Ac-Arg-Tyr(3-Cl)-Tyr-Arg-Trp-Arg-NH2
What is called Ki is the dissociation constant of the complex between target and ligand, obtained from inhibition or displacement. Lower therefore signals higher affinity. Take B15: affinity in assay [4] was put at a Ki of 0.26 nM. In assay [5], the “% Stimulation of [35S]GTPγS binding” value turned out to be 72% and the “EC50 (nM) of stimulation of [35S]GTPγS binding” value was 3.9 nM.

B16: IV-12-B Ac-RY(D)YR(D)WNH2 (peptide)
peptide: Ac-R[dY]Y[dR]WR-NH2
notes: It is not clear from the print which residues the (D) marks belong to, nor whether the last Arg is missing on purpose
In the case of B16, the IC50 in assay [1] is 1140 nM. In assay [2], the “[^35S]GTPγS Binding EC50” value was more than 10000 nM and the “[^35S]GTPγS Binding Percent Stimulation” value was less than 10%.

B17: IV-15-A Butryl-RYYRWR-NH2 (peptide)
peptide: Butyryl-RYYRWR-NH2
SMILES: CCCC(=O)N[C@@H](CCCNC(=N)N)C(=O)N[C@@H](Cc1ccc(O)cc1)C(=O)N[C@@H](Cc1ccc(O)cc1)C(=O)N[C@@H](CCCNC(=N)N)C(=O)N[C@@H](Cc1c[nH]c2ccccc12)C(=O)N[C@@H](CCCNC(=N)N)C(N)=O
B17 registered an IC50 in assay [1] of 4.3 nM. In assay [2], the “[^35S]GTPγS Binding EC50” value turned out to be 35.3 nM and the “[^35S]GTPγS Binding Percent Stimulation” value was determined as 63%.

B18: IV-18-C Heptanoyl-RYYRWR-NH2 (peptide)
peptide: Heptanoyl-RYYRWR-NH2
SMILES: CCCCCCC(=O)N[C@@H](CCCNC(=N)N)C(=O)N[C@@H](Cc1ccc(O)cc1)C(=O)N[C@@H](Cc1ccc(O)cc1)C(=O)N[C@@H](CCCNC(=N)N)C(=O)N[C@@H](Cc1c[nH]c2ccccc12)C(=O)N[C@@H](CCCNC(=N)N)C(N)=O
notes: see recheck
Consider B18, for which the IC50 in assay [1] came out at 2.6 nM. For the same molecule, in assay [2], the “[^35S]GTPγS Binding EC50” value turned out to be 16.9 nM and the “[^35S]GTPγS Binding Percent Stimulation” value was found to be 54%.

B19: VII-77-A (peptide)
peptide: Ac-RY[Phe(4-NHAc)]RWR-NH2
SMILES: CC(=O)Nc1ccc(C[C@H](NC(=O)[C@H](Cc2ccc(O)cc2)NC(=O)[C@H](CCCNC(=N)N)NC(C)=O)C(=O)N[C@@H](CCCNC(=N)N)C(=O)N[C@@H](Cc2c[nH]c3ccccc23)C(=O)N[C@@H](CCCNC(=N)N)C(N)=O)cc1
notes: also called Ac-Arg-Tyr-Phe(4-NHAc)-Arg-Trp-Arg-NH2
Molecule B19 registered a Ki in assay [4] of 0.88 nM. Besides, in assay [5], the “% Stimulation of [35S]GTPγS binding” value is 19% and the “EC50 (nM) of stimulation of [35S]GTPγS binding” value was 115 nM.

B20: IV-17-C Hexanoyl-RYYRWR-NH2 (peptide)
peptide: Hexanoyl-RYYRWR-NH2
SMILES: CCCCCC(=O)N[C@@H](CCCNC(=N)N)C(=O)N[C@@H](Cc1ccc(O)cc1)C(=O)N[C@@H](Cc1ccc(O)cc1)C(=O)N[C@@H](CCCNC(=N)N)C(=O)N[C@@H](Cc1c[nH]c2ccccc12)C(=O)N[C@@H](CCCNC(=N)N)C(N)=O
Take B20: the concentration for half-maximal inhibition (IC50) in assay [1] amounted to 2.6 nM. The “[^35S]GTPγS Binding Percent Stimulation” value in assay [2] was determined as 18%.

B21: VII-79-A (peptide)
peptide: Ac-RY[Phe(4-CH2NH2)]RWR-NH2
SMILES: CC(=O)N[C@@H](CCCNC(=N)N)C(=O)N[C@@H](Cc1ccc(O)cc1)C(=O)N[C@@H](Cc1ccc(CN)cc1)C(=O)N[C@@H](CCCNC(=N)N)C(=O)N[C@@H](Cc1c[nH]c2ccccc12)C(=O)N[C@@H](CCCNC(=N)N)C(N)=O
notes: also called Ac-Arg-Tyr-Phe(4-CH2NH2)-Arg-Trp-Arg-NH2
In assay [4], B21 registered a Ki of 2.54 nM. Also, in assay [5], the “% Stimulation of [35S]GTPγS binding” value was less than 20%.
